Data taken from the supplement of paper PMC9233669.
Variants at the floor of the assay were thinned out.

Tests used:
[1] = test system: biotinyl-Phe-oxazolone; test: self-aminoacylation, catalytic enhancement (BFO) (fold over background); higher = more active; k-Seq, kA / k0A0; sequences stand for … in GGGAAUGGAUCCACAUCUACGAAUUC…UUCACUGCAGACUUGACGAAGCUG
Outline: (§1)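 Catalytic enhancement equals the median kA over the uncatalyzed rate, the latter read from the low-activity peak of a bimodal Gaussian fit. Values of kA came from fitting each sequence's fraction reacted to a pseudo-first-order model, with 1000 bootstraps. Reacted RNA was captured with streptavidin and quantified by triplicate qPCR and Illumina sequencing after 90 minutes at room temperature with 2–1250 μM biotinyl-aminoacyl-oxazolone and 0.43 μM mutagenized RNA pools bearing a 21-nt variable region.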

[2] = test system: biotinyl-Trp-oxazolone; test: self-aminoacylation, catalytic enhancement (BWO) (fold over background); higher = more active; k-Seq, kA / k0A0; sequences stand for … in GGGAAUGGAUCCACAUCUACGAAUUC…UUCACUGCAGACUUGACGAAGCUG
Outline: as §1

[3] = test system: biotinyl-Val-oxazolone; test: self-aminoacylation, catalytic enhancement (BVO) (fold over background); higher = more active; k-Seq, kA / k0A0; sequences stand for … in GGGAAUGGAUCCACAUCUACGAAUUC…UUCACUGCAGACUUGACGAAGCUG
Outline: as §1

[4] = test system: biotinyl-Leu-oxazolone; test: self-aminoacylation, catalytic enhancement (BLO) (fold over background); higher = more active; k-Seq, kA / k0A0; sequences stand for … in GGGAAUGGAUCCACAUCUACGAAUUC…UUCACUGCAGACUUGACGAAGCUG
Outline: as §1

[5] = test system: biotinyl-Met-oxazolone; test: self-aminoacylation, catalytic enhancement (BMO) (fold over background); higher = more active; k-Seq, kA / k0A0; sequences stand for … in GGGAAUGGAUCCACAUCUACGAAUUC…UUCACUGCAGACUUGACGAAGCUG
Outline: as §1

[6] = test system: biotinyl-Ile-oxazolone; test: self-aminoacylation, catalytic enhancement (BIO) (fold over background); higher = more active; k-Seq, kA / k0A0; sequences stand for … in GGGAAUGGAUCCACAUCUACGAAUUC…UUCACUGCAGACUUGACGAAGCUG
Outline: as §1

| Sequence | self-aminoacylation [1] | self-aminoacylation [2] | self-aminoacylation [3] | self-aminoacylation [4] | self-aminoacylation [5] | self-aminoacylation [6] |
| --- | --- | --- | --- | --- | --- | --- |
| AUCCCCCUGGUCAUCGAGUGA [Fam2.1 aminoacylation ribozyme variant] | 45.2 | 7.31 | 4.12 | 6.5 | 5.79 | 3.85 |
| AUCGACCUAGGUCAUCGGGUG [Fam2.2 aminoacylation ribozyme variant] | 8.6 | 6.33 | 4.44 | 6.35 | 5.83 | 4.48 |
| AUGAACCUGGUCAUCGAGUGA [Fam2.1 aminoacylation ribozyme variant] | 5.16 | 6.4 | 3.17 | 6.61 | 5.7 | 3.31 |
| AUGACCAUGGUCAUCGAGUGA [Fam2.1 aminoacylation ribozyme variant] | 22.1 | 9.59 | 4.28 | 8.09 | 7.94 | 4.29 |
| AUGACCCAGGUCAUCGAGUGA [Fam2.1 aminoacylation ribozyme variant] | 17.9 | 5.92 | 2.5 | 5.25 | 4.72 | 2.5 |
| AUGACCCCGGUCAUCGAGUGA [Fam2.1 aminoacylation ribozyme variant] | 39.9 | 6.78 | 3.3 | 8.55 | 6.75 | 3.51 |
| AUGACCCUGCUCAUCGAGUGA [Fam2.1 aminoacylation ribozyme variant] | 1.52 | 2.47 | 1.43 | 1.95 | 1.83 | 1.36 |
| AUGACCCUGGGCAUCGAGUGA [Fam2.1 aminoacylation ribozyme variant] | 42.4 | 7.35 | 3.32 | 8.34 | 7.08 | 3.97 |
| AUGACCCUGGUCAGCGAGUGA [Fam2.1 aminoacylation ribozyme variant] | 24.2 | 6.08 | 2.94 | 5.66 | 4.85 | 3.46 |
| AUGACCCUGGUCAUCGAGAGA [Fam2.1 aminoacylation ribozyme variant] | 2.57 | 1.36 | 1.34 | 1.52 | 1.47 | 1.28 |
| AUGACCCUGGUCAUCGUGUGA [Fam2.1 aminoacylation ribozyme variant] | 17.4 | 2.61 | 1.5 | 2.88 | 2.76 | 1.4 |
| AUGACCCUGGUCAUCUAGUGA [Fam2.1 aminoacylation ribozyme variant] | 63.5 | 9.46 | 3.7 | 8.57 | 8.18 | 3.75 |
| AUGACGCUGGUCAUCGAGUGA [Fam2.1 aminoacylation ribozyme variant] | 36.8 | 7.12 | 3.4 | 5.8 | 6.65 | 3.6 |
| AUGCACCCAGGUCAUCGGGUG [Fam2.2 aminoacylation ribozyme variant] | 21 | 5.32 | 3.89 | 4.35 | 3.42 | 3.29 |
| AUGCACCGAGGUCAUCGGGUG [Fam2.2 aminoacylation ribozyme variant] | 40.4 | 6.46 | 3.66 | 6.58 | 5.79 | 3.81 |
| AUGCACCUAAGUCAUCGGGUG [Fam2.2 aminoacylation ribozyme variant] | 58.2 | 8.67 | 4.84 | 10.5 | 8.76 | 5.66 |
| AUGCACCUAGGCCAUCGGGUG [Fam2.2 aminoacylation ribozyme variant] | 27.6 | 4.46 | 3.41 | 4.53 | 3.87 | 3.32 |
| AUGCACCUAGGUCAGCGGGUG [Fam2.2 aminoacylation ribozyme variant] | 18.1 | 5.27 | 3.02 | 4.65 | 3.65 | 3.27 |
| AUGCACCUAGGUCAUCGCGUG [Fam2.2 aminoacylation ribozyme variant] | 56 | 11 | 5.84 | 12 | 8.45 | 5.09 |
| AUGCACUUAGGUCAUCGGGUG [Fam2.2 aminoacylation ribozyme variant] | 62.8 | 7.92 | 5.03 | 10.6 | 8.73 | 5.29 |
| AUGCCCCUAGGUCAUCGGGUG [Fam2.2 aminoacylation ribozyme variant] | 63.9 | 7.6 | 5.39 | 11.1 | 8.48 | 5.52 |
| AUGUUUGCUAAAAGUCGCAAG [Fam3.1 aminoacylation ribozyme variant] | 4.95 | 2.45 | 1.47 | 1.83 | 1.69 | 1.56 |
| AUGUUUGCUAAUAGUGGCAAG [Fam3.1 aminoacylation ribozyme variant] | 1.22 | 0.491 | 0.643 | 0.588 | 0.483 | 0.646 |
| AUGUUUGGUAAUAGUCGCAAG [Fam3.1 aminoacylation ribozyme variant] | 3.16 | 2.15 | 1.51 | 1.84 | 1.79 | 1.92 |
| AUUAAACUGGUCAUCGAGUGA [Fam2.1 aminoacylation ribozyme variant] | 4.94 | 6.94 | 2.42 | 4.35 | 4.15 | 2.71 |
| AUUAACCCAGGUCAUCGGGUG [Fam2.2 aminoacylation ribozyme variant] | 36.2 | 5.58 | 3.58 | 8.17 | 6.61 | 4.38 |

| Sequence | self-aminoacylation [1] | self-aminoacylation [2] | self-aminoacylation [3] | self-aminoacylation [4] | self-aminoacylation [5] | self-aminoacylation [6] |
| --- | --- | --- | --- | --- | --- | --- |
| AUUAACCGAGGUCAUCGGGUG [Fam2.2 aminoacylation ribozyme variant] | 48.9 | 7.45 | 5.32 | 7.86 | 7.9 | 4.6 |
| AUUAACCUAAGUCAUCGGGUG [Fam2.2 aminoacylation ribozyme variant] | 63.5 | 7.95 | 4.74 | 12.1 | 8.41 | 4.9 |
| AUUAACCUAGGUCAACGGGUG [Fam2.2 aminoacylation ribozyme variant] | 20.5 | 3 | 1.89 | 3.59 | 3.36 | 2.13 |
| AUUAACCUAGGUCAUCGCGUG [Fam2.2 aminoacylation ribozyme variant] | 59.2 | 7.14 | 4.66 | 10.2 | 6.95 | 4.57 |
| AUUAACCUAGGUCAUCGGGCG [Fam2.2 aminoacylation ribozyme variant] | 4.51 | 2.17 | 2.63 | 5.44 | 3.99 | 2.55 |
| AUUAACCUAGGUCAUCGGGGG [Fam2.2 aminoacylation ribozyme variant] | 3.87 | 2.88 | 2.1 | 3.88 | 3.77 | 2.68 |
| AUUAACCUAGGUCAUCGGGUG [Fam2.2 aminoacylation ribozyme variant] | 248 | 22.8 | 15.8 | 46.3 | 33.2 | 19.7 |
| AUUAACCUAGUCAUCGAGUGA [Fam2.1 aminoacylation ribozyme variant] | 15.5 | 7.12 | 2.96 | 5.13 | 4.95 | 2.94 |
| AUUAACCUGAUCAUCGAGUGA [Fam2.1 aminoacylation ribozyme variant] | 41.3 | 13.7 | 4.67 | 10.2 | 9.97 | 4.54 |
| AUUAACCUGGGUCAUCGGGUG [Fam2.2 aminoacylation ribozyme variant] | 39.6 | 11.4 | 6.35 | 15.6 | 13.4 | 6.99 |
| AUUAACCUGGUCACCGAGUGA [Fam2.1 aminoacylation ribozyme variant] | 40.8 | 7.92 | 3.69 | 8.22 | 6.76 | 3.88 |
| AUUAACCUGGUCAGCGAGUGA [Fam2.1 aminoacylation ribozyme variant] | 19.5 | 4.66 | 2.81 | 4.19 | 4.41 | 2.57 |
| AUUAACCUGGUCAUCGAGAGA [Fam2.1 aminoacylation ribozyme variant] | 0.933 | 0.872 | 0.783 | 0.844 | 0.749 | 0.888 |
| AUUAACCUGGUCAUCGCGUGA [Fam2.1 aminoacylation ribozyme variant] | 126 | 21.5 | 7.74 | 19.1 | 17.2 | 8.07 |
| AUUAACCUUGGUCAUCGGGUG [Fam2.2 aminoacylation ribozyme variant] | 41.7 | 7.04 | 4.16 | 8.28 | 6.37 | 3.91 |
| AUUAACGUAGGUCAUCGGGUG [Fam2.2 aminoacylation ribozyme variant] | 42.1 | 3.61 | 3.05 | 3.84 | 4.05 | 2.52 |
| AUUAACGUGGUCAUCGAGUGA [Fam2.1 aminoacylation ribozyme variant] | 18.6 | 6.07 | 2.75 | 4.72 | 4.88 | 2.95 |
| AUUAACUUGGUCAUCGAGUGA [Fam2.1 aminoacylation ribozyme variant] | 3.99 | 4.83 | 2.48 | 4.16 | 3.67 | 2.9 |
| AUUACACUGAUCAUCGAGUGA [Fam2.1 aminoacylation ribozyme variant] | 21.1 | 7.71 | 3.71 | 6.95 | 6.59 | 3.19 |
| AUUACACUGGUCACCGAGUGA [Fam2.1 aminoacylation ribozyme variant] | 24.5 | 7.35 | 2.91 | 5.41 | 5.29 | 2.95 |
| AUUACACUGGUCAUCGACUGA [Fam2.1 aminoacylation ribozyme variant] | 1.11 | 0.546 | 0.965 | 0.807 | 0.596 | 1 |
| AUUACACUGGUCAUCGAGGGA [Fam2.1 aminoacylation ribozyme variant] | 0.709 | 2.72 | 1.37 | 1.4 | 1.26 | 1.64 |
| AUUACACUGGUCAUCGAGUGC [Fam2.1 aminoacylation ribozyme variant] | 0.887 | 1.56 | 1.05 | 1.38 | 1.32 | 1.06 |
| AUUACACUGGUCAUCGAGUGU [Fam2.1 aminoacylation ribozyme variant] | 2.05 | 3.07 | 1.66 | 2.47 | 2.61 | 1.73 |
| AUUACACUGGUCAUCUAGUGA [Fam2.1 aminoacylation ribozyme variant] | 35 | 6.76 | 2.65 | 6.24 | 5.64 | 3.07 |
